In paper PMC4863159:
“And” between values parts separate entries of the source, which are not always exact repeats. Identical values can stand only once.

Columns and labels:
[1] = target: C-CRD-RHCC-C-CRD fusion protein (not stated | Staphylothermus marinus); assay: cross-linking; disulfide-linked oligomers of purified, oxidized CRD-RHCC fusion proteins in non-reducing SDS-PAGE; samples heat-denatured; control: reduced and treated with 60 mM iodoacetamide (IAA)
[2] = target: C-CRD-RHCC-C-CRD fusion protein (not stated | Staphylothermus marinus); assay: cross-linking; spontaneous disulfide cross-linking of CRD-RHCC fusion proteins over time; loss of the dimer band into polymers on anti-His Western blot, samples every 30 minutes for 4 hours, single exponential decay fit (y = e^-x/tau)
[3] = target: N-CRD-RHCC-N-CRD fusion protein (not stated | Staphylothermus marinus); assay: cross-linking; disulfide-linked oligomers of purified, oxidized CRD-RHCC fusion proteins in non-reducing SDS-PAGE; samples heat-denatured; control: reduced and treated with 60 mM iodoacetamide (IAA)
[4] = target: N-CRD-RHCC-N-CRD fusion protein (not stated | Staphylothermus marinus); assay: cross-linking; spontaneous disulfide cross-linking of CRD-RHCC fusion proteins over time; loss of the dimer band into polymers on anti-His Western blot, samples every 30 minutes for 4 hours, single exponential decay fit (y = e^-x/tau)
[5] = target: C9A/C18A C-CRD mutant (CRD-RHCC fusion protein); assay: western blot densitometry of the dimer band over time (spontaneous disulfide cross-linking); conditions: no reducing agent added, read off a plot
[6] = target: right-handed coiled-coil domain (RHCC) from Staphylothermus marinus, lacking CRDs (Staphylothermus marinus); assay: SDS-PAGE at low SDS concentration; purified RHCC on SDS-PAGE with a low SDS concentration to preserve the tetrameric coiled-coil; monomer lane beside it

C-CRD-RHCC-C-CRD fusion protein
stoichiometry N [1]: 3 and 2 | τ (decay of the dimer band into polymers) [2]: 88 min

N-CRD-RHCC-N-CRD fusion protein
stoichiometry N [3]: 2 | τ (decay of the dimer band into polymers) [2]: 251 min | τ (decay of the dimer band into polymers) [4]: 340 min

C-CRD-RHCC-C-CRD fusion protein C9A; C18A
other: dimer loss (normalized) ([5]; t = 30 min, parent: est. 0.82): 1 | other: dimer loss (normalized) ([5]; t = 60 min, parent: est. 0.38): 0.91 | other: dimer loss (normalized) ([5]; t = 90 min, parent: est. 0.29): 0.92 | other: dimer loss (normalized) ([5]; t = 120 min, parent: est. 0.23): 0.98 | other: dimer loss (normalized) ([5]; t = 180 min, parent: est. 0.23): 1 | other: dimer loss (normalized) ([5]; t = 240 min, parent: est. 0.22): 1

right-handed coiled-coil domain (RHCC) from Staphylothermus marinus, lacking CRDs (domain or fragment)
stoichiometry N [6]: 4
